± gives the uncertainty stated by the source.
Experiment: protein stability index of a GFP-peptide fusion (yeast GPS) (PSI 1-4); higher = more stable; sorted into four equal gates, so the index is relative within each strain
Settings: doa10∆
Procedure, shortened: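 Tiled yeast protein peptides of 17 residues were each joined downstream of GFP, on plasmids that also express Cherry. The pooled library was maintained in yeast, and mid-log cultures in leucine-free medium were sorted into four equal gates on the GFP/Cherry ratio. Plasmids from every gate were amplified by PCR and sequenced on Illumina, with barcodes linking reads to strains. The protein stability index of a peptide is its gate-number-weighted read frequency summed over the gates.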

Row | Sequence | protein stability index
1 | SEVQRTMLELLNQLDGF [RPT6] | 2.55 ± 0.1
2 | SEYDRGVSTFSPEGRLF [PUP2] | 3.43 ± 0.1
3 | SFDEWFNTPFANTGGQD [SNF2] | 2.8 ± 0.099
4 | SFFNISPDAPKEIMDKI [SIN4] | 3.48 ± 0.11
5 | SFKLCTLLIAIRGSNRD [YML103C/NUP188] | 1.31 ± 0.048
6 | SFLDPLNYGNICEPKET [YJL039C/NUP192] | 3.33 ± 0.12
7 | SFQKIPLSRINENENFG [YML103C/NUP188] | 2.88 ± 0.15
8 | SFTDILKSAIRDEIAKN [RPN12] | 2.76 ± 0.1
9 | SGEEKGKKVTGFKDEVL [RPS1A] | 1.39 ± 0.24
10 | SGKSNILDAICFVLGIA [SMC2] | 1.85 ± 0.07
11 | SGKSNTSNDASNKKETK [ITC1] | 3.14 ± 0.076
12 | SGLNRAISTGNWSLKRF [RET1] | 2.56 ± 0.07
13 | SGNGSNPNTNTNSNNTP [PGD1] | 2.78 ± 0.062
14 | SGPFKVNGVPLRRVNAR [RPL6A] | 2.67 ± 0.25
15 | SGQKTNRQVMHKMGVER [SIR3] | 3.08 ± 0.21
16 | SGTAATGAASNQSSFNF [YOR098C/NUP1] | 2.7 ± 0.072
17 | SGTTNFMRNGLLEGLNE [UBP6] | 2.73 ± 0.21
18 | SHFSLDQFITSLKCTDP [ITC1] | 2.09 ± 0.073
19 | SHISASASPHLAPNMQL [SNF2] | 2.92 ± 0.041
20 | SHNENKMDFSSKEGQYK [YIL149C/MLP2] | 3.27 ± 0.077
21 | SHNFQNAIFQMESEEVP [PCI8] | 2.85 ± 0.059
22 | SHTGLIRKYGLNICRQC [RPS29A] | 1.51 ± 0.047
23 | SIDNDFSEEKAEEFDFN [YAR002W/NUP60] | 3.19 ± 0.14
24 | SIIKAKLPLLNESLIPL [YML103C/NUP188] | 1.68 ± 0.06
25 | SILSFVDKELLEPGCSV [RPT2] | 2.75 ± 0.077

Row | Sequence | protein stability index
26 | SINATALAFGYVKSLHK [SIN4] | 3.51 ± 0.21
27 | SIPMGGQSINDSLKKLL [ARP9] | 2.39 ± 0.06
28 | SISTYKDILNLASEVGD [ECM29] | 2.63 ± 0.07
29 | SITTGNDNENIVNNDLP [MED2] | 2.79 ± 0.051
30 | SKCLNLISDSNINNSSV [SWI3] | 1.94 ± 0.072
31 | SKFHFSWNESEDTLSGY [PRP28] | 3.07 ± 0.12
32 | SKIQEIESIRSCKDSQL [YIL149C/MLP2] | 2.29 ± 0.044
33 | SKKLDVTVEQLRSIYHQ [NSL1] | 2.42 ± 0.067
34 | SKKRKLVADGVFYAELN [RPS3] | 2.82 ± 0.24
35 | SKKVTSGVPRLKEILNV [RPO21] | 1.81 ± 0.1
36 | SKLLQTTLKLSPSPILL [NUT1] | 2.4 ± 0.045
37 | SKNCYLSEATESDLYKL [RPB2] | 3.02 ± 0.12
38 | SKNFNVILASSLNEVGT [YML103C/NUP188] | 2.44 ± 0.045
39 | SKNLGEINTALNTLLVT [SWI1] | 1.23 ± 0.077
40 | SKNRIIVEADEKKGIVQ [RET1] | 1.21 ± 0.14
41 | SKNSPAEDDVIIPQDIL [YJR042W/NUP85] | 3.19 ± 0.13
42 | SKQIFTHPKDTFYITRE [ARP9] | 3.11 ± 0.065
43 | SKRGNDKKHFNNKNKRV [RPC53] | 3.17 ± 0.14
44 | SKSESDSQIVTPGELVT [RRP4] | 3.07 ± 0.11
45 | SKSTSMKLSMPPEVTSS [POP1] | 2.4 ± 0.053
46 | SKSYTPRKLVLSSGENR [SMC4] | 1.65 ± 0.03
47 | SKTENVRRLEAQRNALN [RPT6] | 2.65 ± 0.17
48 | SKTGIIAYSDSQSSNAN [SIN4] | 2.63 ± 0.043
49 | SKTGSVDTLHNKEGTLE [SSN2] | 3.46 ± 0.24
50 | SKTLSLIQSYSLLDKPD [FAS1] | 2.18 ± 0.078

Row | Sequence | protein stability index
51 | SLDTLELESITESITHD [NUT1] | 2.57 ± 0.063
52 | SLEQRTLNPDLFLYKEL [RPC82] | 3.28 ± 0.28
53 | SLINSHLKILASSNFPF [RPC82] | 2.64 ± 0.066
54 | SLISTRNDSTVNDSVIS [BRN1] | 2.6 ± 0.081
55 | SLLEKDIDAVNGAVGKR [ISW2] | 2.92 ± 0.09
56 | SLLLSSSFKEDCLSFAP [SSN2] | 2.56 ± 0.24
57 | SLRTPIAPKITPKVVRS [SEC65] | 3.16 ± 0.093
58 | SLSFGSGSAGANPAGAS [YJL041W/NSP1] | 2.92 ± 0.13
59 | SLSRDFVMKTRRRKGIS [SNU114] | 3.25 ± 0.2
60 | SLTISLYASDYASYFPY [RPN7] | 1.42 ± 0.036
61 | SLVFNRKLAVERAGHLL [PRE5] | 2.08 ± 0.2
62 | SLVKYPELLDSLAILGM [SWI1] | 1.89 ± 0.06
63 | SLVSTQSSSSTRSHEYG [REC8] | 2.86 ± 0.08
64 | SMATPTHSDSHEDMKRR [ROX3] | 2.77 ± 0.11
65 | SMENTPKVPVSAAATPS [GAL11] | 2.07 ± 0.045
66 | SMENYHLLIKIIRQLSE [SRB8] | 1.71 ± 0.058
67 | SMIEKGGDWERRNRYKT [RPN7] | 3.01 ± 0.14
68 | SMKDRAQHAVILDQEKY [RPS25A] | 1.55 ± 0.094
69 | SMRIQILRRQAILRQQQ [GAL11] | 3.19 ± 0.29
70 | SNADTNQNSDMKKKLEL [SRB8] | 3.14 ± 0.13
71 | SNAFYSVLRDTLVAQNL [SMC4] | 2.13 ± 0.086
72 | SNASRRKLINYTKKHLS [RPN4] | 1.73 ± 0.071
73 | SNDKFVHVQLLINLKIS [SRB8] | 1.51 ± 0.042
74 | SNEFVPNTSDNNNNSNN [SWI1] | 2.59 ± 0.1
75 | SNGFNNVTFGSKKDPRI [YMR153W/NUP53] | 2.77 ± 0.048

Same assay, conditions: pdr5∆

Row | Sequence | protein stability index
76 | SEVQRTMLELLNQLDGF [RPT6] | 2.5 ± 0.083
77 | SEYDRGVSTFSPEGRLF [PUP2] | 3.28 ± 0.1
78 | SFDEWFNTPFANTGGQD [SNF2] | 2.99 ± 0.12
79 | SFFNISPDAPKEIMDKI [SIN4] | 3.32 ± 0.14
80 | SFKLCTLLIAIRGSNRD [YML103C/NUP188] | 1.78 ± 0.061
81 | SFLDPLNYGNICEPKET [YJL039C/NUP192] | 2.81 ± 0.085
82 | SFQKIPLSRINENENFG [YML103C/NUP188] | 3.12 ± 0.097
83 | SFTDILKSAIRDEIAKN [RPN12] | 2.98 ± 0.12
84 | SGEEKGKKVTGFKDEVL [RPS1A] | 1.73 ± 0.22
85 | SGKSNILDAICFVLGIA [SMC2] | 1.86 ± 0.087
86 | SGKSNTSNDASNKKETK [ITC1] | 3.26 ± 0.073
87 | SGLNRAISTGNWSLKRF [RET1] | 2.57 ± 0.078
88 | SGNGSNPNTNTNSNNTP [PGD1] | 3 ± 0.056
89 | SGPFKVNGVPLRRVNAR [RPL6A] | 2.84 ± 0.2
90 | SGQKTNRQVMHKMGVER [SIR3] | 3.75 ± 0.18
91 | SGTAATGAASNQSSFNF [YOR098C/NUP1] | 3.01 ± 0.09
92 | SGTTNFMRNGLLEGLNE [UBP6] | 2.87 ± 0.14
93 | SHFSLDQFITSLKCTDP [ITC1] | 2.42 ± 0.079
94 | SHISASASPHLAPNMQL [SNF2] | 2.83 ± 0.04
95 | SHNENKMDFSSKEGQYK [YIL149C/MLP2] | 3.29 ± 0.07
96 | SHNFQNAIFQMESEEVP [PCI8] | 3.07 ± 0.068
97 | SHTGLIRKYGLNICRQC [RPS29A] | 1.58 ± 0.05
98 | SIDNDFSEEKAEEFDFN [YAR002W/NUP60] | 3.02 ± 0.11
99 | SIIKAKLPLLNESLIPL [YML103C/NUP188] | 2.18 ± 0.067
100 | SILSFVDKELLEPGCSV [RPT2] | 2.86 ± 0.071

Row | Sequence | protein stability index
101 | SINATALAFGYVKSLHK [SIN4] | 2.92 ± 0.12
102 | SIPMGGQSINDSLKKLL [ARP9] | 2.46 ± 0.063
103 | SISTYKDILNLASEVGD [ECM29] | 2.65 ± 0.076
104 | SITTGNDNENIVNNDLP [MED2] | 2.78 ± 0.052
105 | SKCLNLISDSNINNSSV [SWI3] | 1.91 ± 0.065
106 | SKFHFSWNESEDTLSGY [PRP28] | 3.19 ± 0.12
107 | SKIQEIESIRSCKDSQL [YIL149C/MLP2] | 2.92 ± 0.054
108 | SKKLDVTVEQLRSIYHQ [NSL1] | 2.25 ± 0.06
109 | SKKRKLVADGVFYAELN [RPS3] | 1.84 ± 0.19
110 | SKKVTSGVPRLKEILNV [RPO21] | 2.06 ± 0.12
111 | SKLLQTTLKLSPSPILL [NUT1] | 1.47 ± 0.051
112 | SKNCYLSEATESDLYKL [RPB2] | 3.22 ± 0.14
113 | SKNFNVILASSLNEVGT [YML103C/NUP188] | 2.42 ± 0.043
114 | SKNLGEINTALNTLLVT [SWI1] | 1.79 ± 0.054
115 | SKNRIIVEADEKKGIVQ [RET1] | 1.47 ± 0.061
116 | SKNSPAEDDVIIPQDIL [YJR042W/NUP85] | 2.96 ± 0.12
117 | SKQIFTHPKDTFYITRE [ARP9] | 3.09 ± 0.056
118 | SKRGNDKKHFNNKNKRV [RPC53] | 2.7 ± 0.11
119 | SKSESDSQIVTPGELVT [RRP4] | 3.17 ± 0.066
120 | SKSTSMKLSMPPEVTSS [POP1] | 2.59 ± 0.062
121 | SKSYTPRKLVLSSGENR [SMC4] | 1.82 ± 0.041
122 | SKTENVRRLEAQRNALN [RPT6] | 2.91 ± 0.18
123 | SKTGIIAYSDSQSSNAN [SIN4] | 2.6 ± 0.043
124 | SKTGSVDTLHNKEGTLE [SSN2] | 3.14 ± 0.16
125 | SKTLSLIQSYSLLDKPD [FAS1] | 2.01 ± 0.057

Row | Sequence | protein stability index
126 | SLDTLELESITESITHD [NUT1] | 2.42 ± 0.046
127 | SLEQRTLNPDLFLYKEL [RPC82] | 3.13 ± 0.19
128 | SLINSHLKILASSNFPF [RPC82] | 2.3 ± 0.075
129 | SLISTRNDSTVNDSVIS [BRN1] | 2.81 ± 0.077
130 | SLKDLSSLRNQELLNAE [RPN3] | 2.15 ± 0.22
131 | SLKGYKIENSVQIGAEI [CSI1] | 3.21 ± 0.2
132 | SLLEKDIDAVNGAVGKR [ISW2] | 3.24 ± 0.081
133 | SLLLSSSFKEDCLSFAP [SSN2] | 3.17 ± 0.14
134 | SLRTPIAPKITPKVVRS [SEC65] | 3.05 ± 0.063
135 | SLSFGSGSAGANPAGAS [YJL041W/NSP1] | 2.89 ± 0.13
136 | SLSRDFVMKTRRRKGIS [SNU114] | 3.31 ± 0.11
137 | SLTISLYASDYASYFPY [RPN7] | 1.64 ± 0.035
138 | SLVFNRKLAVERAGHLL [PRE5] | 1.5 ± 0.18
139 | SLVKYPELLDSLAILGM [SWI1] | 2.31 ± 0.054
140 | SLVSTQSSSSTRSHEYG [REC8] | 3.04 ± 0.11
141 | SMATPTHSDSHEDMKRR [ROX3] | 2.94 ± 0.11
142 | SMENTPKVPVSAAATPS [GAL11] | 2.19 ± 0.049
143 | SMENYHLLIKIIRQLSE [SRB8] | 1.77 ± 0.064
144 | SMIEKGGDWERRNRYKT [RPN7] | 3.43 ± 0.22
145 | SMKDRAQHAVILDQEKY [RPS25A] | 2 ± 0.13
146 | SMRIQILRRQAILRQQQ [GAL11] | 2.98 ± 0.17
147 | SMRTIMKANPALYVLRE [PRP8] | 1.91 ± 0.29
148 | SNADTNQNSDMKKKLEL [SRB8] | 3.21 ± 0.15
149 | SNAFYSVLRDTLVAQNL [SMC4] | 2.09 ± 0.054
150 | SNASRRKLINYTKKHLS [RPN4] | 1.27 ± 0.056
